From PMC5497066

Tests used:
[1] = target: single-ring mutant of GroEL, SR1 (E. coli), P0A6F5
[2] = target: single-ring truncation mutant, SRΔ526 (E. coli); experiment: protease protection (encapsulation); denatured PepQ-24F (100 nM) bound to wild-type or Δ526 GroEL-GroES-ADP bullets (200 nM) or full-length or Δ526 single-ring GroEL (300 nM) with GroES (600 nM); single turnover with ATP (2 mM), quenched after 10 s; unencapsulated PepQ digested with Proteinase K; SDS-PAGE, fluorescein scan

observed folding rate constant of PepQ by recovery of enzymatic activity, bound to SR1 (300 nM) and refolded with GroES (600 nM) and ATP (2 mM) [1] [min⁻¹]	early escape compared to SR1 [2] [%]	Binder
0.62		wild type E. coli PepQ, P21165 1-443 (enzyme) MESLASLYKNHIATLQERTRDALARFKLDALLIHSGELFNVFLDDHPYPFKVNPQFKAWVPVTQVPNCWLLVDGVNKPKLWFYLPVDYWHNVEPLPTSFWTEDVEVIALPKADGIGSLLPAARGNIGYIGPVPERALQLGIEASNINPKGVIDYLHYYRSFKTEYELACMREAQKMAVNGHRAAEEAFRSGMSEFDINIAYLTATGHRDTDVPYSNIVALNEHAAVLHYTKLDHQAPEEMRSFLLDAGAEYNGYAADLTRTWSAKSDNDYAQLVKDVNDEQLALIATMKAGVSYVDYHIQFHQRIAKLLRKHQIITDMSEEAMVENDLTGPFMPHGIGHPLGLQVHDVAGFMQDDSGTHLAAPAKYPYLRCTRILQPGMVLTIEPGIYFIESLLAPWREGQFSKHFNWQKIEALKPFGGIRIEDNVVIHENNVENMTRDLKLA
	< 10	PepQ-24F (enzyme, fluorescein (5-iodoacetamidofluorescein) on the cysteine at position 24) MESLASLYKNHIATLQERTRDALCRFKLDALLIHSGELFNVFLDDHPYPFKVNPQFKAWVPVTQVPNCWLLVDGVNKPKLWFYLPVDYWHNVEPLPTSFWTEDVEVIALPKADGIGSLLPAARGNIGYIGPVPERALQLGIEASNINPKGVIDYLHYYRSFKTEYELACMREAQKMAVNGHRAAEEAFRSGMSEFDINIAYLTATGHRDTDVPYSNIVALNEHAAVLHYTKLDHQAPEEMRSFLLDAGAEYNGYAADLTRTWSAKSDNDYAQLVKDVNDEQLALIATMKAGVSYVDYHIQFHQRIAKLLRKHQIITDMSEEAMVENDLTGPFMPHGIGHPLGLQVHDVAGFMQDDSGTHLAAPAKYPYLRCTRILQPGMVLTIEPGIYFIESLLAPWREGQFSKHFNWQKIEALKPFGGIRIEDNVVIHENNVENMTRDLKLA
